{"source": "patent US20230212305A1", "about": "(published 2023)", "binders": {"B1": {"name": "G2.757 rat (antibody, V domains shown)", "VH": "QVTLKESGPGILRPSHTLSLTCSFSGFSLTTYGICVSWIRQPSGKGLEWLANICWEDSKAYNPSLKNRLTISKDTSNNQVFLRIPSVDTADSAIYYCARVFNNYPFPYWGQGTLVTVSS", "VL": "TQSPPSLSASLGDKVTITCQASQNINKYVAWYQQKPGKAPRLLIRYTSTLESGTPSRFSGSGSWRDYSFSISNVESEDIADYYCLQYVNLWTFGGGTKLELK"}, "B2": {"name": "G2.758 rat (antibody, V domains shown)", "VH": "QGTLKESGPGIVQSSHTLSLTCSFSGFSLSTYGMGVSWIRQPSGKGLEWLASVWWNGDTSNNPSLKSRLTVSKDTS", "VL": "DIQMTQSPPSLSASLGDKVTITCQASQNIYKYIAWYQQKPGKAPRLLIRYTSTLHFGTPSRFSGSGSGRDYSFSISNVESEDIARYYCQQYVKFPNTFGAGTILELK"}, "B3": {"name": "G2.333 rat (antibody, V domains shown)", "VH": "EIQLQESGPGLVKPSQSLSLTCSVTGYTITSGYDWTWLRKFPGNKMEWMGYISYSGFTNYNPSLRSRISISRDTSKNQFFLQLNSVTTEDTATYYCARTRGYNPFPYWGQGTLVTVSS", "VL": "DIQMTQSPSLLSASVGDRVSLSCKAGRNVNNYLAWYQQKLGKPPKLLIYNSNSLQTGIPSRFSGSGSGTDFTLTISSLQPEDVATYFCQQYNSWTTFGSGTKLEIK"}, "B4": {"name": "G2.318 rat (antibody, V domains shown)", "VH": "B3 VH with I2V, Q3K, Q5L, T36S, L38I, F57W, T99V, P106A", "VL": "B3 VL with Q3V, S20T, R27Q, V29I, K42E, P43A, S51A"}, "B5": {"name": "G2.760 rat (antibody, V domains shown)", "VH": "EVQLVESGGGLVQPGRSMKLSCAASGFTFSKSDMAWVRQAPTKGLKWVASIRYDGGNTYYRDSVRGRFTISRDNAKSTLYLQMDSLRSEDTATYYCSTAKAAISTPSYYVLDAWGQGASVTVSS", "VL": "DIGMTQSPTSMSKSVGDRVTMNCKASQNVGSNVDWFQQKTGQSPKLLIYKSSNRYTGVPARFTGSGSGTDFTFTISNMQAEDLAVYYCMQSNSYPPTFGGGTKLELK"}, "B6": {"name": "G2.636.hu25 (antibody, V domains shown)", "VH": "EVQLVESGGGLVQPGGSLRLSCAASGFTFSRFYMAWVRQAPGKGLEWVAHISHGGDTTYYRDSVKGRFTISRDNSKNTLYLQMNSLRAEDTAVYYCTTSAAPWNYVMDGWGQGTLVTVSS", "VL": "AIQLTQSPSSLSASVGDRVTITCKGSQNINNFLAWYQQKPGKAPKLLIYKTNSLHTGIPSRFSGSGSGTDYTLTISSLQPEDFATYYCYQYNNGYTFGQGTKLEIK"}, "B7": {"name": "G2.636.hu47 humanized (antibody, V domains shown)", "VH": "B6 VH with T114A, L115T", "VL": "B6 VL with A1D, I21L"}, "B8": {"name": "G2.636.hu27 (antibody, V domains shown)", "VH": "B6 VH", "VL": "B6 VL with A1D, I21L"}, "B9": {"name": "G2.636.hu45 (antibody, V domains shown)", "VH": "B6 VH with T114A, L115T", "VL": "B6 VL"}, "B10": {"name": "G2_767 (antibody, V domains shown)", "VH": "QVQLKESGPGLVQPSQTLSLTCTVSGLSLSSNSVSWIRQPPGKGLEWMGVIWNNGGTDYNSAIKSRLSISRDTSKSQVFLKLSSLQTEDTAMYFCARGYSSYIFDYWGQGVMVTVSS", "VL": "DIQMTQSPPSLSASLGDKVTITCQSSQNINNYIAWYQQKPGEAPRVLIRYTSTLQSGAPSRFSGSGSWRDYSFTISNVESEDIADYYCLQYVNLWTFGGGTKLEIK"}}, "key": {"human ABCG2 [1]": {"target": "T1, human ABCG2 (UniProt Q9UNQ0 1-655)", "T1 chain": "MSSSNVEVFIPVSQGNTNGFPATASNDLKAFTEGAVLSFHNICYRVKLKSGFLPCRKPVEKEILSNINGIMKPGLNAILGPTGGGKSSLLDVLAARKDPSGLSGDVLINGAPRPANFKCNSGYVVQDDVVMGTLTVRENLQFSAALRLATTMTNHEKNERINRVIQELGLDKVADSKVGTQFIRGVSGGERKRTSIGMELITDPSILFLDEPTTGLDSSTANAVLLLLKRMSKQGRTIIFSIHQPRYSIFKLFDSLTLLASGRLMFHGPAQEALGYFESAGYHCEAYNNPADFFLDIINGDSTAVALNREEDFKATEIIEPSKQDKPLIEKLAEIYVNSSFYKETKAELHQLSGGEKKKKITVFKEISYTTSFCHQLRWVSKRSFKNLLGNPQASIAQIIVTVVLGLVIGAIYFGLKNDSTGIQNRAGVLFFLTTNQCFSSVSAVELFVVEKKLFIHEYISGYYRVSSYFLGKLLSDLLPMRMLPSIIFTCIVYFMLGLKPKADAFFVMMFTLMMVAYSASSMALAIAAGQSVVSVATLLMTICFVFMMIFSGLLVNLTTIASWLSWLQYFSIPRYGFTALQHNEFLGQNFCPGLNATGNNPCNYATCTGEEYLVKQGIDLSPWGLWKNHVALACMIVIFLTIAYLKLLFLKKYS", "assay": "FACS binding to 293T.hG2 cells"}, "[2]": {"target": "T2, cynomolgus ABCG2 (Macaca fascicularis) (UniProt Q5MB13 1-654)", "T2 chain": "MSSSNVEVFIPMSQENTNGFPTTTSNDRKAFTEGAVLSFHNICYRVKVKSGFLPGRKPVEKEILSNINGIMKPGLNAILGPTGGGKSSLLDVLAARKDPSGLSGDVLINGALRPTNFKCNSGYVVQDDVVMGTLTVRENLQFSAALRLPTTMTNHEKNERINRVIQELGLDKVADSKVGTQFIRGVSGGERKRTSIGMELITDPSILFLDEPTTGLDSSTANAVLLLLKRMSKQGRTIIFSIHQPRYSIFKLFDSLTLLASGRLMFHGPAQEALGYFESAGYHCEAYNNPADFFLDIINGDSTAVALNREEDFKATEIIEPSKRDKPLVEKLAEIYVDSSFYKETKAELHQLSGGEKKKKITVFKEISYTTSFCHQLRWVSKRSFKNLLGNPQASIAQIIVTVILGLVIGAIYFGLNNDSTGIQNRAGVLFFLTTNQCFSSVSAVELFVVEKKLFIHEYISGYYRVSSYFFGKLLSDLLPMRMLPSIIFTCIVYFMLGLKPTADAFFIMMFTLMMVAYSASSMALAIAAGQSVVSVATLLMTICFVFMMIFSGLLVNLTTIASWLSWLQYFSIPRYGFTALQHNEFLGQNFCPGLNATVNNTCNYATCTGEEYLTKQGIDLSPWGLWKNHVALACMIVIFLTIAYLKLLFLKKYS", "assay": "FACS binding to 293T.cG2 cells"}, "[3]": {"target": "T2, cynomolgus ABCG2 (Macaca fascicularis)", "assay": "FACS binding to 293T cells"}, "human ABCG2 [4]": {"target": "T1, human ABCG2", "assay": "cell binding"}, "[5]": {"target": "T2, cynomolgus ABCG2 (Macaca fascicularis)", "assay": "cell binding"}}, "note": "Residue numbers refer to the chain shown, from its start.", "data": [{"binder": "B1", "values": [{"measurement": "Kd", "setting": "human ABCG2 [1]", "value": 12.4, "unit": "nM"}, {"measurement": "Kd", "setting": "[2]", "value": 73.5, "unit": "nM"}]}, {"binder": "B2", "values": [{"measurement": "Kd", "setting": "human ABCG2 [1]", "value": 17.5, "unit": "nM"}, {"measurement": "Kd", "setting": "[2]", "value": 107, "unit": "nM"}]}, {"binder": "B3", "values": [{"measurement": "Kd", "setting": "[3]", "value": 111, "unit": "nM"}]}, {"binder": "B4", "values": [{"measurement": "Kd", "setting": "[3]", "value": 49.8, "unit": "nM"}]}, {"binder": "B5", "values": [{"measurement": "Kd", "setting": "human ABCG2 [1]", "value": 3.4, "unit": "nM"}, {"measurement": "Kd", "setting": "[2]", "value": 2.4, "unit": "nM"}]}, {"binder": "B6", "values": [{"measurement": "EC50", "setting": "human ABCG2 [4]", "value": 28.5, "unit": "nM"}, {"measurement": "EC50", "setting": "[5]", "value": 87.4, "unit": "nM"}]}, {"binder": "B7", "values": [{"measurement": "EC50", "setting": "human ABCG2 [4]", "value": 20.4, "unit": "nM"}, {"measurement": "EC50", "setting": "[5]", "value": 42.6, "unit": "nM"}]}, {"binder": "B8", "values": [{"measurement": "EC50", "setting": "human ABCG2 [4]", "value": 23.1, "unit": "nM"}, {"measurement": "EC50", "setting": "[5]", "value": 38.8, "unit": "nM"}]}, {"binder": "B9", "values": [{"measurement": "EC50", "setting": "human ABCG2 [4]", "value": 18.5, "unit": "nM"}, {"measurement": "EC50", "setting": "[5]", "value": 65.3, "unit": "nM"}]}, {"binder": "B10", "values": [{"measurement": "Kd", "setting": "human ABCG2 [1]", "value": 31.2, "unit": "nM"}, {"measurement": "Kd", "setting": "[2]", "value": 1370, "unit": "nM"}]}]}
